Key:
[1] = system: T1, WR 1-3wRRK peptide (synthetic construct (human NANOG derived)); assay: FP; conditions: given as Ka in nM; n=2.1±0.5; almost all DNA bound at 60 nM in EMSA
T1 sequence: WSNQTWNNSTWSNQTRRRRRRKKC

[2] = system: WR 1-4wRK peptide (synthetic construct (human NANOG derived)); assay: FP; conditions: given as Ka in nM; cooperativity n=3.3±1.2
[3] = system: HIV TAT cell-penetrating peptide (HIV); assay: FP; conditions: given as Ka in nM; n=1.1±0.1; not all DNA bound at 0.9 uM in EMSA, no FCCS bridging
[4] = system: WR 1-4wRK peptide (synthetic construct (human NANOG derived)); assay: EMSA; conditions: 50% free DNA; DNA bridging by FCCS from 1 uM

WR 1-4wRK peptide (synthetic construct (human NANOG derived)), sequence (chain, as listed by the source): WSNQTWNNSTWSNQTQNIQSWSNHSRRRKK

“GATA6 40 bp DNA (two NANOG cognate sites)” showed a K half [1] of 180 nM, a K half [2] of 340 nM and a K half [3] of 260 nM. For the same substance, the K half [4] was 1000 nM.

Reference: patent US20240383953
